Source: publication PMC8585765, “An OsKala3, R2R3 MYB TF, Is a Common Key Player for Black Rice Pericarp as Main Partner of an OsKala4, bHLH TF” (Frontiers in Plant Science, 2021)

Biological target: T1, OsKala4 (rice (Oryza sativa), UniProt Q948Y2 1-451)
T1 sequence (looked up): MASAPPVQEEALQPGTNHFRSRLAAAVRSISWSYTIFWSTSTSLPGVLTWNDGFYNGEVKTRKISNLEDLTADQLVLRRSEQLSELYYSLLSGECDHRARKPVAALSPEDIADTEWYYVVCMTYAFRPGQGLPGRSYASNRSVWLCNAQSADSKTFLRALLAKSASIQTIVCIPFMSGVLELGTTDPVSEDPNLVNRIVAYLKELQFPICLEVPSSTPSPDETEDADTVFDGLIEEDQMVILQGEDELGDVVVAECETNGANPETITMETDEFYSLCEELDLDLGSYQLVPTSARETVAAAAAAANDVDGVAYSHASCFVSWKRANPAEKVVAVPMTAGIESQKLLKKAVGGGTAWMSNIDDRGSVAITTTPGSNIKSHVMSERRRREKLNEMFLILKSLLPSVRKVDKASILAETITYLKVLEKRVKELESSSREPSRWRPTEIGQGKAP
Assay: cell-based or functional assay

dual-luciferase reporter assay in transiently transfected rice protoplasts; proOsCHI:LUC reporter; co-transfection of OsKala3 and OsKala4 compared to OsKala3 alone: 4 fold
B1: OsKala3 (natural protein, rice (Oryza sativa), UniProt O23891 1-321, looked up)
chain: MGRKPCCSKEGLNRGAWTAMEDDILVSYIAKHGEGKWGALPKRAGLKRCGKSCRLRWLNYLRPGIKRGNISGDEEELILRLHTLLGNRWSLIAGRLPGRTDNEIKNYWNSTLSKRVAMQRTAAATSMPAAATTSSNADAAGAAARRRRSPEPRTVVVSPIRTKALRCNNNSSSGIVVVQQAGACSHGGRPPESGAPGDAAADKVATPQAVQQQQQQELAGAEDDDDLPVPAVCIDLDLDDIELGGLDGFLISPWRGGGHDDGNAAAGAVPNLPMPIGYKLGGAGGGGEAGAVDLEALLGQLEAEEDDDGDHHHHHHHHHHQ
